From PMC12578639

B1: Major head protein (Mhp) of phage Φ80α, gp47 (natural protein)
chain: ASNNVKPQVFNPDNVMMHEKKDGTLMNEFTTPILQEVMENSKIMQLGKYEPMEGTEKKFTFWADKPGAYWVGEGQKIETSKATWVNATMRAFKLGVILPVTKEFLNYTYSQFFEEMKPMIAEAFYKKFDEAGILNQGNNPFGKSIAQSIEKTNKVIKGDFTQDNIIDLEALLEDDELEANAFISKTQNRSLLRKIVDPETKERIYDRNSDSLDGLPVVNLKSSNLKRGELITGDFDKLIYGIPQLIEYKIDETAQLSTVKNEDGTPVNLFEQDMVALRATMHVALHIADDKAFAKLVPADKRTDSVPGEV

Key:
[1] = target: ThsB2-His6 (Sau–Thoeris ThsB2 with a C-terminal hexahistidyl tag) (Staphylococcus aureus 08BA02176); experiment: SEC + other: mass photometry; complex assembled from individually purified subunits in the presence of NAD+; Superdex 200 Increase 10/300 GL, 25 mM Tris pH 7.5, 200 mM NaCl, 5% glycerol, 1 mM dithiothreitol; peaks analysed by SDS–PAGE; mass photometry at 100–200 nM
[2] = target: His6-ThsB1 (Sau–Thoeris ThsB1 with an N-terminal hexahistidyl tag) (Staphylococcus aureus 08BA02176); experiment: as above

Row | Molecule | stoichiometry N [1] | stoichiometry N [2]
1 | ThsB2-His6 (Sau–Thoeris ThsB2 with a C-terminal hexahistidyl tag) (natural protein) | 2 | 
2 | B1 |  | 1
